For this experiment, the target named is Flag-tagged BPGAP1. Description: co-immunoprecipitation (anti-Flag M2 beads) with immunoblot quantification. Particulars: HEK293T cell lysates; three independent experiments; parent: est. 1.0; read off a plot.

On to “HA-tagged Rac1, wild-type (WT) (from UniProt P63000) G12V”, for which the ratio to parent is 0.72 fold change.

As for “HA-tagged Rac1, wild-type (WT) (from UniProt P63000) T17N”, the ratio to parent was 2.2 fold change.

These data come from publication PMC10011724.
